One block for each molecule: values may come before it.
Columns and labels:
[1] = target: mm PCDH24 EC1-2Fc (mouse); assay: SPR; OpenSPR (Nicoya); mm PCDH24 EC1-2Fc immobilised on a Protein A sensor chip (>800 RU); mm CDHR5 EC1-2 injected at 2 to 23.5 uM; 20 mM Tris HCl pH 7.5, 150 mM NaCl, 50 mM KCl, 2 mM CaCl2, 0.5 mM TCEP, 1% BSA; 20 uL/min; kinetic fit, 1:1 model
[2] = target: the molecule itself; assay: crystal structure; contacts between copies of one fragment in the crystal (asymmetric unit or symmetry mates); vapor diffusion at 4 °C
[3] = target: the molecule itself; assay: bead aggregation assay; homophilic; Protein G Dynabeads coated with one Fc fusion captured from concentrated serum-free medium and washed; 50 mM Tris pH 7.5, 100 mM NaCl, 10 mM KCl, 0.2% BSA, 2 mM CaCl2; 60 min on a depression slide, then rocking 1 to 2 min

Kd [1]: 16 µM
Molecule: mm CDHR5 EC1-2 (domain or fragment)

B1: hs PCDH24 EC1-2 (mammalian-produced, form II crystal) (domain or fragment, human)
chain: NVAPKFLANMTSVILPEDLPVGAQAFWLVAEDQDNDPLTYGMSGPNAYFFAVTPKTGEVKLASALDYETLYTFKVTISVSDPYIQVQREMLVIVEDRNDNAPVFQNTAFSTSINETLPVGSVVFSVLAVDKDMGSAGMVVYSIEKVIPSTGDSEHLFRILANGSIVLNGSLSYNNKSAFYQLELKACDLGGMYHNTFTIQCSLPVFLSISVVDQPDLDTVPRARDPPVGG
modifications: N-linked glycosylation at N9
notes: protocadherin-24 (PCDH24, also CDHR2), human, repeats EC1-2; DNA cloned with the signal peptide in a CMV vector, protein secreted; the structure includes residues N1 to D218; numbers count on: the mature protein; The range is that of the residues in the structure; The crystallised sample also held mammalian-produced hs CDHR5 EC1-2, which is not in the structure; also called Hs PCDH24 EC1-2 II; …
binding result [2]: binds

B2: hs PCDH24 EC1-MAD10Fc (Fc fusion, human)
chain: NVAPKFLANMTSVILPEDLPVGAQAFWLVAEDQDNDPLTYGMSGPNAYFFAVTPKTGEVKLASALDYETLYTFKVTISVSDPYIQVQREMLVIVEDRNDNAPVFQNTAFSTSINETLPVGSVVFSVLAVDKDMGSAGMVVYSIEKVIPSTGDSEHLFRILANGSIVLNGSLSYNNKSAFYQLELKACDLGGMYHNTFTIQCSLPVFLSISVVDQPDLDPQFVREFYSASVAEDAAKGTSVLTVEAVDGDKGINDPVIYSISYSTRPGWFDIGADGVIRVNGSLDREQLLEADEEVQLQVTATETHLNIYGQEAKVSIWVTVRVMDVNDHKPEFYNCSLPACTFTPEEAQVNFTGYVDEHASPRIPIDDLTMVVYDPDKGSNGTFLLSLGGPDAEAFSVSPERAVGSASVQVLVRVSALVDYERQTAMAVQVVATDSVSQNFSVAMVTIHLRDINDHRPTFPQSLYVLTVPEHSATGSVVTDSIHATDPDTGAWGQITYSLLPGNGADLFQVDPVSGTVTVRNGELLDRESQAVYYLTLQATDGGNLSSSTTLQIHLLDINDNAPVVSGSYNIFVQEEEGNVSVTIQAHDNDEPGTNNSRLLFNLLPGPYSHNFSLDPDTGLLRNLGPLDREAIDPALEGRIVLTVLVSDCGEPVLGTKVNVTITVEDINDNLPIFNQSSYNFTVKEEDPGVLVGVVKAWDADQTEANNRISFSLSGSGANYFMIRGLVLGAGWAEGYLRLPPDVSLDYETQPVFNLTVSAENPDPQGGETIVDVCVNVKDVNDNPPTLDVASLRGIRVAENGSQHGQVAVVVASDVDTSAQLEIQLVNILCTKAGVDVGSLCWGWFSVAANGSVYINQSKAIDYEACDLVTLVVRACDLATDPGFQAYSNNGSLLITIEDVNDNAPYFLPENKTFVIIPELVLPNREVASVRARDDDSGNNGVILFSILRVDFISKDGATIPFQGVFSIFTSSEADVFAGSIQPVTSLDSTLQGTYQVTVQARDRPSLGPFLEATTTLNLFTVDQSYRSRLQFSTPKEEVGANRQAINAALTQATRTTVYIVDIQDIDSAARARPHSYLDAYFVFPNGSALTLDELSVMIRNDQDSLTQLLQLGLVVLGSQESQESDLSKQLISTVPRARDPPV
notes: protocadherin-24 (PCDH24, also CDHR2), human, full-length extracellular domain EC1 to MAD10; DNA cloned with the signal peptide, protein secreted; numbers count on: the mature protein; linker between the PCDH24 fragment and the Fc tag in the CMV vector; also called Fc-tagged full-length hs PCDH24 extracellular domain; human protocadherin-24; not shown: Fc, C-terminal, kept
binding result [3]: binds

— PMC8691648, “Heterophilic and homophilic cadherin interactions in intestinal intermicrovillar links are species dependent” (PLoS Biology, 2021)
